# Results: patent US6867016
# Molecular target: rabbit anti-CS141 peptide antiserum raised against unconjugated peptide SEQUENCE ID NO 26
# Test: competition Western blot; antiserum pre-incubated with varying concentrations of peptide immunogen
binder,measurement,value
GPTMCFEDRMIMSPVKNNVGRGLNIALVNGTTGAVLGQK [CS141 synthetic peptide SEQUENCE ID NO 26],concentration of peptide at which antibody binding to the band was inhibited,2.54 µM
